Data on one protein can be found in article PMC5741831, “Structural determinants for protein unfolding and translocation by the Hsp104 protein disaggregase” (Bioscience Reports, 2017).

The data set deals with the molecule itself. Description: crystal structure; orthorhombic crystal form, 2.6 Å, nucleotide-free, three copies in the asymmetric unit; contacts between NCS-related neighbouring molecules in the crystal, not the hexameric ring.

B1: Hsp104_(1-360) (domain or fragment, S. cerevisiae, UniProt P31539 1-360, looked up)
chain: MNDQTQFTERALTILTLAQKLASDHQHPQLQPIHILAAFIETPEDGSVPYLQNLIEKGRYDYDLFKKVVNRNLVRIPQQQPAPAEITPSYALGKVLQDAAKIQKQQKDSFIAQDHILFALFNDSSIQQIFKEAQVDIEAIKQQALELRGNTRIDSRGADTNTPLEYLSKYAIDMTEQARQGKLDPVIGREEEIRSTIRVLARRIKSNPCLIGEPGIGKTAIIEGVAQRIIDDDVPTILQGAKLFSLDLAALTAGAKYKGDFEERFKGVLKEIEESKTLIVLFIDEIHMLMGNGKDDAANILKPALSRGQLKVIGATTNNEYRSIVEKDGAFERRFQKIEVAEPSVRQTVAILRGLQPKYE
notes: Hsp104, S. cerevisiae, residues 1-360: N domain (4-164), AAA-1 large domain (165-341) and first helix of the AAA-1 small domain (345-356); three independent copies in the crystallographic asymmetric unit; nucleotide-free; also called N-terminal fragment of S. cerevisiae Hsp104; mol 1; source: E. coli BL21-CodonPlus (DE3)-RIL, purified (Ni-NTA, anion exchange, Mono-S); not shown: His6, N-terminal, …
In the case of B1, the binding result was “binds”.
